40 sequences from the nanobody polyreactivity screen of Harvey et al. (2022) can be followed below.

The series in a line: yeast display, Sf9 membrane polyspecificity reagent, FACS + sequencing; frameworks hold sequencing errors. In outline: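 In a synthetic yeast display library (Saccharomyces cerevisiae BJ5465), nanobody expression was induced with galactose for 36–48 hours. FACS gates were set low and high (top ~1%) using anti-HA fluorescence for expression and streptavidin fluorescence for binding of the Sf9 membrane reagent. Each polyreactivity label is drawn from the gate of origin.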
Regarding “QVQLVESGGGLVQAGGSLRLSCAASGRTFYRYAMGWYRQAPGKEREFVAAISRCGGSTYYADSVKGRFTISRDNAKNTVFLQMNRLKPEDTGVYYCNADTRAGGFYTPYGRDYWGQGSQVTVSS”, the “polyreactivity (PSR sort gate)” value is listed as “high polyreactivity”.
Under “QVQLVESGGGLVQAGGSLRLSCAASGRTFYRYAMGWYRQAPGKEREFVARITTSGGSTYYADSVKGRFTISRDNAKNTVYLEMNSLKPEDTAVYYCAASAPYIYYWGQGTQVTVSS” stands “high polyreactivity”.
With “QVQLVESGGGLVQAGGSLRLSCAASGRTFYRYAMGWYRQAPGKEREFVARITTSGGSTYYADSVKGRFTISRDNAKNTVYLQMNSLKPDDTAVYYCNASGVTYAFLRFDYWGQGTQVTVSS”, the “polyreactivity (PSR sort gate)” value is on record as “high polyreactivity”.
As for “QVQLVESGGGLVQAGGSLRLSCAASGRTFYRYAMGWYRQAPGKERELFAAISGSGTSTSYADSVKGRFTISRDNAKNTVYLQLNSLKPDDTAVYYCAATYYVYYYSRYYYWGQGTQVTVSS”, the “polyreactivity (PSR sort gate)” value is “high polyreactivity”.
Under “QVQLVESGGGLVQAGGSLRLSCAASGRTFYRYAMGWYRQAPGKERELVAAISGSGTSTSYADSVKGRFTISRDNAKNTVYLQMNSLKPEDTAVYYCAATYYVYYYSRYYYWGQGTQVTVSS” stands “high polyreactivity”; under “QVQLVESGGGLVQAGGSLRLSCAASGRTFYRYAMGWYRQAPGKERELVASITRDGRTNYADSVKGRFTISRDNAKNTVYLQMNSLKPEDTAVYYCNAKHKITHSSSDYWGQGTQVTVSS”, “high polyreactivity”.
Consider “QVQLVESGGGLVQAGGSLRLSCAASGRTFYRYAMGWYRQAPGKERELVATISRSGGSTYYADSVKGRFTISRDNAKNTVYLQMNSLKPEDTAVFYCNAEGYPWGFYTYDYWGQGTQVTVSS”, for which the “polyreactivity (PSR sort gate)” value is listed as “low polyreactivity”.
Next, “QVQLVESGGGLVQAGGSLRLSCAASGRTFYRYAMGWYRQAPGKERELVAVITSGSRTKYADSVKGRFTISRDNAKNTVYLQMNSLKPEDTAVYYCNAYGVRYRQAFVRYNYWGQGTQVTVSS”: “high polyreactivity”; “QVQLVESGGGLVQAGGSLRLSCAASGRTFYRYAMGWYRQAPGKESELVAAISSSGGSTYYADSVKGRFTISRDNAKNTVYFQMNSLKPEDTAVYDCADQYFLFTTPYRYAPRMGYWGQGTQVTLSS”: “high polyreactivity”; “QVQLVESGGGLVQAGGSLRLSCAASGRTFYRYGMGWYRQAPGKEREFVAAITRSGDSTYADSVKGRFTISRDNAKITVYLQMNSLKPEDTAVYYCAKVFLRQYAYRYYYWGQGTQVTVSS”: “high polyreactivity”.
Regarding “QVQLVESGGGLVQAGGSLRLSCAASGRTFYRYVMGWYRQATGKERELDADISRRGGRTYYADSVKGRFTISRDNAKNTVYLQMNSLKPEDTAVYYCAAESKYATSSPRRDYWGQGTQVTVSS”, the “polyreactivity (PSR sort gate)” value was “high polyreactivity”.
In the case of “QVQLVESGGGLVQAGGSLRLSCAASGRTFYSNAMGWYRQAAGKERELVAAISYNDGSTYYADSVKGRFTITRDNAKNTVYLQMNSLKPEDTAVYACNADVGAWAWYTRYDYWGQGTQVTVSS”, the “polyreactivity (PSR sort gate)” value was “low polyreactivity”.
“QVQLVESGGGLVQAGGSLRLSCAASGRTFYSNAMGWYRQAPGKERELVAAIRQSGGSTYYADSVKGRFTISRDNEKNSVYLQMNSLTPEDTAVYYCATGRHDSYKGSLYYYWGQGTQVTVSS”: the “polyreactivity (PSR sort gate)” value is on record as “high polyreactivity”.
In the case of “QVQLVESGGGLVQAGGSLRLSCAASGRTFYSNAMGWYRQAPGKERELVAAISRSGGTTYYADSVKGRFTISRDNAKNTVYLQMNSLKPEDTAVYYCNTLRYGTTGKYDYWGQGTQVTVSS”, the “polyreactivity (PSR sort gate)” value was “high polyreactivity”.
Consider “QVQLVESGGGLVQAGGSLRLSCAASGRTFYSYAMGWYRQAPGKERELVAAISASGGRTYYADSVKGRFTISRDNAKNTVYLQMNSLKPEDTAVYYCAAYPWYRMWGQGTQVTVSS”, for which the “polyreactivity (PSR sort gate)” value is “high polyreactivity”.
With “QVQLVESGGGLVQAGGSLRLSCAASGRTFYSYAMGWYRQAPGKERELVAAISRGGNTYYADSVKGRFTISRDNAKNTVSLQMNSLNPEDTAVYYCAVVRVTYYASIYHRGYDYWGQGTQVTVSS”, the “polyreactivity (PSR sort gate)” value is given as “low polyreactivity”.
Consider “QVQLVESGGGLVQAGGSLRLSCAASGRTFYSYAMGWYRQAPGTEREFVAAINWSGTSTYADSVKGRFTISRDNAKNTVYLQMNSLKPEDTAVYYCAKTYRTLVRYWGQPFGYWGQGTQVTVSS”, for which the “polyreactivity (PSR sort gate)” value was “high polyreactivity”.
Take “QVQLVESGGGLVQAGGSLRLSCAASGRTFYSYTMGWYRPAPGKERELVAAINRGGSTYYADSVKGRFTISRDNAKNTVYLQMNSLKPEDTAVYYCAVGYAHSSNRRYYYKKTHGYWGQGTQVTVSS”: the “polyreactivity (PSR sort gate)” value is on record as “low polyreactivity”.
As for “QVQLVESGGGLVQAGGSLRLSCAASGRTFYSYVMGWYRQAPGKERELVAAISSTGGTYADSVKGRFTISRDNAKNTVYLQMNSLKPEDTAVYYCAARVHFPYPDYAWITVLYDYWGQGTQVTVSS”, the “polyreactivity (PSR sort gate)” value is recorded as “low polyreactivity”.
Turning to “QVQLVESGGGLVQAGGSLRLSCAASGRTFYWNAMGWSIQAPGKERELVASISWSGGRTYYADSVKGRFTISRDNAKNTVYLQMISLKPEDTAVYYCARRYSGTPSTFYYWGQGTLVTVSS”, the “polyreactivity (PSR sort gate)” value is reported as “high polyreactivity”.
As to “QVQLVESGGGLVQAGGSLRLSCAASGRTFYWNAMGWYRQAPGKDRDLVASISWSGGRTYYADSVKGRFTISRDNAKNTVYLQMNSLKPEDTAVYYCARRYSGTPSTFYYWGQGTQVNVSS”, the “polyreactivity (PSR sort gate)” value is “high polyreactivity”.
With “QVQLVESGGGLVQAGGSLRLSCAASGRTFYYAMGWYRQAPGKERELVAAISKNGGRTYYADSVKGRFTISRDNAKNTVYLQMNSLKPEDTAVYYCAAAFQRPHSYLYYYWGQGTQVTVSS”, the “polyreactivity (PSR sort gate)” value was “high polyreactivity”.
With “QVQLVESGGGLVQAGGSLRLSCAASGRTFYYAMGWYRQAPVKERYADSVKGRFTISRDNAKNTVYLQMNSLKPEDTAVYYCAAKVPEPPSLDESDYWGQGTQVTVSS”, the “polyreactivity (PSR sort gate)” value is recorded as “low polyreactivity”.
“QVQLVESGGGLVQAGGSLRLSCAASGRTFYYNAMGWYRQAPGKEREFVAAISYGGTTTYYADSVKGRFTISRDNAKNTVYLQMNSLKPEDTAVYYCAAGYTWRQSWYPFDYWGQGSQVTVSS”: the “polyreactivity (PSR sort gate)” value is recorded as “high polyreactivity”.
As for “QVQLVESGGGLVQAGGSLRLSCAASGRTFYYNAMGWYRQAPGKERELVARISTIGGNTFYADSVKGRFTISRDNAKNTVYLQMNSLKPEDTAVYYCATTGGPSWRKYDYWGQGTQVTVSS”, the “polyreactivity (PSR sort gate)” value is “high polyreactivity”.
For the sequence “QVQLVESGGGLVQAGGSLRLSCAASGRTFYYNAMGWYRQAPGKERELVARITSSGGSTYYADSVKGRFTISRDNAKNTVYLQMNSLKPEDTAVYYCAAGRSRYLWFGRDFDYWGQGTQVTVSS”, the “polyreactivity (PSR sort gate)” value is reported as “low polyreactivity”.
For “QVQLVESGGGLVQAGGSLRLSCAASGRTFYYNTMGRNIPAPGKERELVATISRIGGSTYYADSVKGRFTISRDNAKNTVYLQMNSLKPEDTAVYYCAKGRSLNGRPPVVYWQLFYYWGQGTEVTVSS”, the “polyreactivity (PSR sort gate)” value is reported as “high polyreactivity”.
“QVQLVESGGGLVQAGGSLRLSCAASGRTFYYNVMGWYRQAPGKERELVAAISTGVSTNYADSVKGRFTISRDNAKNTVYLQMNSLKPEDTAVYYCNARSYRWYRPVYRYDYWGQGTQVNVSS”: the “polyreactivity (PSR sort gate)” value is recorded as “high polyreactivity”.
For “QVQLVESGGGLVQAGGSLRLSCAASGRTFYYYAMGSYRQAPGKEREFVAAITTRGGSTYYADSVKGRFTISRDNAKNTVYLQMNSLKPEDTAVYYCAARSYYQGGYYYWGQGTQVTVSS”, the “polyreactivity (PSR sort gate)” value was “high polyreactivity”.
Next, “QVQLVESGGGLVQAGGSLRLSCAASGRTFYYYAMGWYRPAPGKERELVAAITSRGGSTYYADSVTGRFTISRDNAKNTVYLQMNSLKPEDTAVYYCAAEYWSTYWQSELDYWGQGTQVTVSS”: “high polyreactivity”; “QVQLVESGGGLVQAGGSLRLSCAASGRTFYYYAMGWYRQAHGKERELVAAISTNGGSTYYADSVKGRFTISRDNAKNTVYLQMNSLKPEDTAVYYCNTYAKPHRSGGGLGGHYYWGQGTQVTLSS”: “low polyreactivity”.
Next, “QVQLVESGGGLVQAGGSLRLSCAASGRTFYYYAMGWYRQAPGKEREFVASISYSGARTYYADSVKGRFTISRDNAKNTVYLQMNSLKPEETAVYYCAAGYPLGGDYWGQGTQVTVSS”: “high polyreactivity”.
As to “QVQLVESGGGLVQAGGSLRLSCAASGRTFYYYAMGWYRQAPGKERELVAGIDFSSGSTYYADSVKGRFTISRDNAKNTVYLQMNSLKPEDTAVYYCAAKWHVRGRGARYRYDYDYWGQGTQVTVSS”, the “polyreactivity (PSR sort gate)” value is on record as “low polyreactivity”.
Consider “QVQLVESGGGLVQAGGSLRLSCAASGRTFYYYAMGWYRQAPGKERELVARIRSGGSTNYADSVKGRFTISRDNAKNTVYLQMNSLKPEDTAVYYCNALGAKGYVKGFDYWGQGTQVTVSS”, for which the “polyreactivity (PSR sort gate)” value was “low polyreactivity”.
“QVQLVESGGGLVQAGGSLRLSCAASGRTFYYYAMGWYRQAPGKERELVATITKSSGSTSYADSVKGRFTISRDNAKNTVYLQMNSLKPEDTAVYYCAKVFRSGGVYRYDYWGQGTQVTVSS”: the “polyreactivity (PSR sort gate)” value is given as “high polyreactivity”.
Next, “QVQLVESGGGLVQAGGSLRLSCAASGRTFYYYAMGWYRQAPGKERELVAVIRFSDGSTYYADSVKGRFTISRDNAKNTVYLQMNSLKPEDTAVYYCAAKGPRRWGSGFDYWGQGTQVTVSS”: “low polyreactivity”; “QVQLVESGGGLVQAGGSLRLSCAASGRTFYYYGMGWYRQAPGKERELVASITNGGNTNYADSVKGRFTISRDNAKNTVYLQMNSLKPEDTAVYYCAKDVPYWRPVVRYDYWGQGTQVTVSS”: “low polyreactivity”; “QVQLVESGGGLVQAGGSLRLSCAASGRTFYYYGMGWYRQAPGKERELVASITNGGNTNYADSVKGRFTISRDNAKYTVYLQMNSLKPEDTAVYYCAKDVPYWRPVVRYDYWGQGTQVTVSS”: “low polyreactivity”.
With “QVQLVESGGGLVQAGGSLRLSCAASGRTHIYAMGWYRQAPGKERELVAGISRSGTRTYYADSVKGRFTISRDNAKNTVYLQMNSLKPEDSAVYYCNAQAYYQGYDYWGQGTQVTVSS”, the “polyreactivity (PSR sort gate)” value is given as “high polyreactivity”.
As to “QVQLVESGGGLVQAGGSLRLSCAASGRTIAINAMGWYRQAPGKEREFVAAITSRSSRTYYADSVKGRFTISRDNAKNTVYLQMNSLKPEDTAVYYCARGSELGYYAWVYYWGQGTQVTVSS”, the “polyreactivity (PSR sort gate)” value is “high polyreactivity”.
